Experimental data from patent publication US20170233490A1 (Hoffmann-La Roche, published 2017).

Key:
HER3 ECD-HRG complex = molecular target: T1, HER3 ECD-HRG complex (human, UniProt P21860 20-643); assay: SPR Biacore T100; reference: HER3-ECD without Heregulin
T1 construct: HER3 ECD preincubated with a 3- to 6-fold molar excess of Heregulin ('open' conformation); biotinylated Her3-ECD in the ribosome display; also called HER3-ECD/HRG1β
Protocol: A CM5 series sensor was mounted into the system and was normalized in HBS-ET buffer (10 mM HEPES pH 7.4, 150 mM NaCl, 3 mM EDTA, 0.005% w/v Tween 20) according to the manufacturer's instructions. The sample buffer was the system buffer supplemented with 1 mg/ml CMD (Carboxymethyldextran, Sigma #86524). The system operated at 25° C. 6500 RU RAM-Fcγ (relative units of Fcγ-fragment RamIgG, GE Healthcare) were immobilized according to the manufacturer's instructions using EDC/NHS chemistry on all four flow cells. The sensor was deactivated using 1M ethanolamine.

SBP-tagged HER3-ECD = molecular target: T2, SBP-tagged HER3-ECD (human, UniProt P21860 20-643); assay: plate assay: SBP-tagged HER3-ECD on streptavidin plate, M-05-74 titrated in the presence of 10 nM Europium-labeled Heregulin-beta, time-resolved fluorescence; half-maximal promotion of HRG binding
T2 construct: from cell culture supernatant, held on a streptavidin plate; not shown: SBP tag
Protocol: On the next day the wells were washed three times with washing buffer (PBS+0.05% Tween-20) and blocked with PBS containing 1% BSA for one hour. After another three washes with washing buffer, 40 μl antibody solution (in Delfia Binding Buffer) was added to each well as a 2× stock of the desired final concentrations (10⁻³ to 10³ nM, alternatively 10⁻⁴ to 10² nM). […] The plates were incubated on a shaker at room temperature for two hours. Following three washes with Delfia Wash Buffer, Delfia Enhancement Solution was added and incubated on a shaker for 15 minutes (light protected). Finally, the plates were measured in a Tecan Infinite F200 reader using a time-resolved fluorescence measurement protocol.

[1] = molecular target: T3, human HER1 (full length, on cells) (human, UniProt P00533 25-1210); assay: IHC (Ventana Benchmark XT) on formalin-fixed, paraffin-embedded HEK293 cells transiently transfected with full length HER1
T3 construct: HEK293 cells transfected with full length HER1, fixed and embedded (IHC); also called EGFR
Protocol: All selected clones were tested for reactivity and specificity in IHC. […] After an additional fixation in formalin overnight the Agarose blocks were embedded in paraffin. Untransfected HEK293 cells were used as negative controls and treated accordingly to the transfected cells. After paraffin embedding 3 μm thin sections were prepared using a microtome. The sections were mounted on glass microscopy slides and dried for 2 h. All further steps of the immunohistochemical staining procedure were carried out using a Ventana Benchmark XT. The slides were dewaxed and antigen retrieval was performed by applying heat for 1 hour. For antigen retrieval the Ventana buffer CC1 was used. The antibodies were used at a concentration of 1 μg/ml. For the detection of bound antibody the Ventana UltraView detection kit was used.

HER4 ECD-HRG complex = molecular target: T4, HER4 ECD-HRG complex (human, UniProt Q15303 26-651); assay: SPR Biacore T100; reference: HER4-ECD without Heregulin
T4 construct: HER4 ECD preincubated with a 5-fold molar excess of Heregulin
T4 sequence 1: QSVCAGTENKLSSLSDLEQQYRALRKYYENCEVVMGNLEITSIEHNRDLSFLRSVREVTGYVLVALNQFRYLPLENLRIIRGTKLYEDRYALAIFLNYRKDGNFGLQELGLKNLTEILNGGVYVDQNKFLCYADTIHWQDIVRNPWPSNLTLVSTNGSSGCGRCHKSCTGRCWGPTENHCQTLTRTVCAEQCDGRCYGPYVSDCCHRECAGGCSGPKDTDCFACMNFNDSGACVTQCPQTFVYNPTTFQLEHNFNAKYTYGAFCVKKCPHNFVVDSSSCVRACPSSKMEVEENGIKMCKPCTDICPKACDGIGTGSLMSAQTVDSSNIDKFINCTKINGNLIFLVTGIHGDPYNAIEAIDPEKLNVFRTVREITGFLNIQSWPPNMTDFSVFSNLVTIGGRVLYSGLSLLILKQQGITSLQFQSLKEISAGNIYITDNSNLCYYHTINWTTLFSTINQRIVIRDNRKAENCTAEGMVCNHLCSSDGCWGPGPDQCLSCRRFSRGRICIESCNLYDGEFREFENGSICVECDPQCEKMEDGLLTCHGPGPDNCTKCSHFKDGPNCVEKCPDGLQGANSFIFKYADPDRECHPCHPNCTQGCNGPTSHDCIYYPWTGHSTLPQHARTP
T4 sequence 2: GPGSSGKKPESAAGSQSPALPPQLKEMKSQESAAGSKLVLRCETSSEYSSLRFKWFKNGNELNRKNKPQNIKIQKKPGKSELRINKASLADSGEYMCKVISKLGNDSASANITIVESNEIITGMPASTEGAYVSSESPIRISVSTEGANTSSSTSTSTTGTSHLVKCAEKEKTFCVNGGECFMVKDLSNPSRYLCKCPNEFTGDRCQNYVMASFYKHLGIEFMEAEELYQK

TgSlyDΔIF = molecular target: T5, TgSlyDΔIF; assay: ELISA, coated antigen 0.5 µg/ml, hybridoma supernatant
T5 construct: scaffold without hairpin insert, negative control
T5 chain: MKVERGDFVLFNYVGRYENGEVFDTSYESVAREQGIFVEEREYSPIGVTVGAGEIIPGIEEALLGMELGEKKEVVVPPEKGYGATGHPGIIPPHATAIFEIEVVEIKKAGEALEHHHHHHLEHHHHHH
Protocol: For the ELISA the screening an antigen down format was used. […] Hybridoma Supernatant was added to the plates and incubated for 1 h at room temperature. Bound antibody was detected with a HRP-labeled F(ab′)₂ goat anti-mouse Fcγ (Dianova) and ABTS (Roche) was used as a HRP-substrate.

B1: anti-HER3/HER4 antibody M-05-74 (antibody, V domains shown)
VH: QVQLQQSGAELAKPGASVKMSCKTSGYTLTDYWIHWVKQRPGQGLEWIGYINPYTGYTESNQKFKDKATLTADKSSNTAYIQLSSLTSEDSAVYYCARPYYYGDYWGQGTTLTVSS
VL: QIVLTQSPAIMSASPGERVTITCSASSSVSYMHWFQQKPGTSPKLLIYSTSNLASGVPARFSGSGSGTSYSLTISRMEAEDAATYYCQQRSSYPFTFGSGTKLEIK
notes: murine monoclonal IgG from hybridoma (supernatant or purified), bivalent; also called M-074; M-5-74
With B1 the “ratio MR (+Heregulin)/MR (-Heregulin)” value (HER3 ECD-HRG complex) was 3 fold, the “ratio ka (Her3-ECD-HRG)/ka (Her3-ECD)” value (HER3 ECD-HRG complex) was 4.85 fold and the “EC50 (read off the curve)” value (SBP-tagged HER3-ECD) was roughly 0.3 nM. The binding result [1] was “no binding (tested: 1 µg/ml)”, the “ratio MR (+Heregulin)/MR (-Heregulin)” value (HER4 ECD-HRG complex) was 6 fold and the “ratio ka (Her4-ECD-HRG)/ka (Her4-ECD)” value (HER4 ECD-HRG complex) was 23.9 fold. B1: no binding (TgSlyDΔIF).
